Source: the supplement of paper PMC10126150
± gives the standard deviation of the averaged measurements.

The sequences below were run on ATP (assay: switch fluorescence ratio, 500 uM ATP over buffer (Cy3 cluster intensity, sum of 5 cycles each) (fold (ratio)); higher = stronger signal-on switching upon ATP binding; sequences stand for … in TCGTCGGCAGCGTCAGATGTGTATAAGAGACAGTTTTTTTTTTTTTTTTTTTTTTTTT…TC). Settings: aptamer strand: ATP DNA aptamer (quencher-CACCTGGGGGAGTATTGCGGAGGAAGG + anchor), 100 nM annealed; ATP concentration: 500 uM.
In short: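 Exposure to 500 uM ATP lasted 15 min at 22 °C before imaging, and a selection-buffer image was taken beforehand, for Cy3-labelled switching-strand clusters on a modified Illumina MiSeq flow-cell annealed to 100 nM quencher-labelled ATP aptamer. Five buffer/ATP cycles were run with NaOH stripping and re-annealing between them. The fluorescence ratio per cluster is summed target-cycle over summed buffer-cycle Cy3 intensity, averaged per switch-domain sequence. Clusters outside 100-1000 RFU were excluded.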
ACTCCATGCG gave a switch fluorescence ratio of 1.155 ± 0.0036.
For ACTCCGACCG, the switch fluorescence ratio was 1.72 ± 0.14.
ACTCCGGGGA gave a switch fluorescence ratio of 2.4 ± 0.42.
ACTCCTAACC was tested, and the switch fluorescence ratio was 1.26 ± 0.047.
ACTCCTCGAC gave a switch fluorescence ratio of 2.71 ± 0.41.
Sequence ACTCCTGGTT has a switch fluorescence ratio of 1.01 ± 0.014.
For ACTCGAGGGG, the switch fluorescence ratio was 1.01 ± 0.041.
For ACTCGCGGGC, the switch fluorescence ratio was 1.98 ± 0.21.
ACTCGGGCTA was tested, and the switch fluorescence ratio was 1.59 ± 0.61.
With ACTCGGGGGA the switch fluorescence ratio was 1.018 ± 0.0035.
ACTCGGGTAA showed a switch fluorescence ratio of 1 ± 0.017.
In the case of ACTCGTTTAT, the switch fluorescence ratio is reported as 0.99 ± 0.013.
For ACTCTGGGC, the switch fluorescence ratio was 1.17 ± 0.21.
Work on ACTCTTATCA yielded a switch fluorescence ratio of 1.01 ± 0.023.
In the case of ACTCTTTATA, the switch fluorescence ratio is reported as 1.04 ± 0.035.
ACTCTTTTAC was tested, and the switch fluorescence ratio was 1.291 ± 0.0056.
For ACTGAAGATT, the switch fluorescence ratio was 1.0263 ± 0.00089.
ACTGACGATG gave a switch fluorescence ratio of 1.31 ± 0.018.
Sequence ACTGAGGCCG has a switch fluorescence ratio of 1.04 ± 0.16.
With ACTGAGGGCG the switch fluorescence ratio was 1.02 ± 0.025.
Sequence ACTGAGGGTA has a switch fluorescence ratio of 1.04 ± 0.027.
Sequence ACTGAGTAA has a switch fluorescence ratio of 1.01 ± 0.076.
In the case of ACTGAGTCAT, the switch fluorescence ratio is reported as 1.01 ± 0.034.
ACTGAGTTGT showed a switch fluorescence ratio of 1.04 ± 0.038.
In the case of ACTGATTGGC, the switch fluorescence ratio is reported as 1.18 ± 0.18.
With ACTGCATCTA the switch fluorescence ratio was 1.09 ± 0.033.
Sequence ACTGCCGGTG has a switch fluorescence ratio of 1.25 ± 0.053.
ACTGCCGTAT showed a switch fluorescence ratio of 1.01 ± 0.036.
For ACTGCTTCCT, the switch fluorescence ratio was 1.34 ± 0.051.
For ACTGGAGGGC, the switch fluorescence ratio was 1.08 ± 0.1.
ACTGGGGAGC gave a switch fluorescence ratio of 0.985 ± 0.0078.
For ACTGGGGATA, the switch fluorescence ratio was 0.988 ± 0.047.
Work on ACTGGGGATG yielded a switch fluorescence ratio of 0.963 ± 0.043.
With ACTGGGTCCT the switch fluorescence ratio was 0.973 ± 0.015.
Work on ACTGGGTGGA yielded a switch fluorescence ratio of 1.02 ± 0.034.
With ACTGGGTGGC the switch fluorescence ratio was 1.01 ± 0.029.
Sequence ACTGGTATTA has a switch fluorescence ratio of 1.02 ± 0.014.
With ACTGGTGCAT the switch fluorescence ratio was 1.04 ± 0.019.
Work on ACTGTAGTTT yielded a switch fluorescence ratio of 1.11 ± 0.07.
Work on ACTGTATGTC yielded a switch fluorescence ratio of 1.03 ± 0.014.
Work on ACTGTCGGGC yielded a switch fluorescence ratio of 1.03 ± 0.025.
ACTGTGAATT showed a switch fluorescence ratio of 1.02 ± 0.011.
Work on ACTGTTAATA yielded a switch fluorescence ratio of 1.03 ± 0.023.
Sequence ACTGTTATGT has a switch fluorescence ratio of 1.07 ± 0.022.
For ACTGTTGGCG, the switch fluorescence ratio was 0.965 ± 0.067.
In the case of ACTGTTGTGT, the switch fluorescence ratio is reported as 1.06 ± 0.1.
Work on ACTGTTGTTG yielded a switch fluorescence ratio of 1.006 ± 0.01.
For ACTTAAAAGC, the switch fluorescence ratio was 1 ± 0.019.
With ACTTAACATT the switch fluorescence ratio was 1.18 ± 0.056.
For ACTTAGACAC, the switch fluorescence ratio was 1.095 ± 0.0089.
In the case of ACTTATATAG, the switch fluorescence ratio is reported as 1.012 ± 0.0065.
In the case of ACTTATGTTG, the switch fluorescence ratio is reported as 0.995 ± 0.024.
ACTTATTGGG gave a switch fluorescence ratio of 1.03 ± 0.011.
ACTTATTGTA showed a switch fluorescence ratio of 0.9878 ± 0.0098.
ACTTATTTGC was tested, and the switch fluorescence ratio was 1.16 ± 0.17.
ACTTCACATA was tested, and the switch fluorescence ratio was 1.35 ± 0.042.
Work on ACTTCAGCAG yielded a switch fluorescence ratio of 1.12 ± 0.023.
Sequence ACTTCAGGGG has a switch fluorescence ratio of 1.13 ± 0.1.
ACTTCGAGCG showed a switch fluorescence ratio of 1.08 ± 0.02.
Sequence ACTTGACTTG has a switch fluorescence ratio of 1.03 ± 0.018.
Work on ACTTGAGTTT yielded a switch fluorescence ratio of 0.988 ± 0.01.
In the case of ACTTGATTGT, the switch fluorescence ratio is reported as 1.02 ± 0.094.
Sequence ACTTGCACTT has a switch fluorescence ratio of 1.22 ± 0.038.
ACTTGCGGGC was tested, and the switch fluorescence ratio was 1.03 ± 0.021.
Work on ACTTGCTATA yielded a switch fluorescence ratio of 1.06 ± 0.029.
ACTTGCTATC showed a switch fluorescence ratio of 1.25 ± 0.048.
ACTTGGACGC showed a switch fluorescence ratio of 1.14 ± 0.044.
For ACTTGGGCTT, the switch fluorescence ratio was 1.03 ± 0.051.
In the case of ACTTGGGGTA, the switch fluorescence ratio is reported as 0.992 ± 0.04.
ACTTGGGGTG gave a switch fluorescence ratio of 1.04 ± 0.013.
Work on ACTTGGTCGA yielded a switch fluorescence ratio of 0.9902 ± 0.0095.
For ACTTGGTGGG, the switch fluorescence ratio was 0.986 ± 0.049.
Sequence ACTTGTTCAT has a switch fluorescence ratio of 1.01 ± 0.033.
ACTTTAATGA showed a switch fluorescence ratio of 1.07 ± 0.018.
ACTTTAGCGG gave a switch fluorescence ratio of 0.99001 ± 0.0002.
Work on ACTTTCATGG yielded a switch fluorescence ratio of 1.01 ± 0.018.
ACTTTCCACA showed a switch fluorescence ratio of 1.17 ± 0.027.
Work on ACTTTGAAGC yielded a switch fluorescence ratio of 0.996 ± 0.019.
With ACTTTGAATA the switch fluorescence ratio was 0.988 ± 0.013.
With ACTTTGACAT the switch fluorescence ratio was 1.072 ± 0.0092.
With ACTTTGAGAT the switch fluorescence ratio was 1.03 ± 0.012.
With ACTTTGCTCT the switch fluorescence ratio was 1.032 ± 0.0064.
With ACTTTGGAGG the switch fluorescence ratio was 1.02 ± 0.034.
For ACTTTGTTGC, the switch fluorescence ratio was 1.01 ± 0.0079.
For ACTTTGTTTT, the switch fluorescence ratio was 1 ± 0.022.
ACTTTTCGGT was tested, and the switch fluorescence ratio was 1 ± 0.015.
ACTTTTTATG was tested, and the switch fluorescence ratio was 0.991 ± 0.035.
AGAAAAATAC was tested, and the switch fluorescence ratio was 1.49 ± 0.67.
With AGAAAAATTG the switch fluorescence ratio was 0.979 ± 0.067.
AGAAAAGAA gave a switch fluorescence ratio of 1 ± 0.036.
In the case of AGAAAATATT, the switch fluorescence ratio is reported as 1.004 ± 0.0076.
Sequence AGAAAATTGG has a switch fluorescence ratio of 1.01 ± 0.03.
With AGAAAGAAAA the switch fluorescence ratio was 0.993 ± 0.09.
Sequence AGAAAGAGGG has a switch fluorescence ratio of 1.002 ± 0.0013.
In the case of AGAAAGCGTT, the switch fluorescence ratio is reported as 1.02 ± 0.022.
AGAAAGGATT showed a switch fluorescence ratio of 1.01 ± 0.021.
For AGAAAGGGCA, the switch fluorescence ratio was 1.04 ± 0.03.
Work on AGAAAGGGTG yielded a switch fluorescence ratio of 1.14 ± 0.074.
For AGAAAGTTAA, the switch fluorescence ratio was 0.9856 ± 0.0047.
AGAAATAGGA showed a switch fluorescence ratio of 1.01 ± 0.035.
AGAAATGACG gave a switch fluorescence ratio of 1 ± 0.037.
For AGAAATTGGG, the switch fluorescence ratio was 0.992 ± 0.028.
AGAACAAACC was tested, and the switch fluorescence ratio was 1.08 ± 0.018.
For AGAACGGCCT, the switch fluorescence ratio was 1.01 ± 0.019.
With AGAAGAAGGC the switch fluorescence ratio was 0.988 ± 0.022.
For AGAAGAGGTA, the switch fluorescence ratio was 0.949 ± 0.024.
AGAAGATGGT showed a switch fluorescence ratio of 0.9827 ± 0.0029.
AGAAGCTGGG showed a switch fluorescence ratio of 1 ± 0.03.
For AGAAGGGGAT, the switch fluorescence ratio was 1.01 ± 0.021.
Sequence AGAAGGGTGG has a switch fluorescence ratio of 0.992 ± 0.043.
AGAAGGGTGT showed a switch fluorescence ratio of 1.02 ± 0.017.
For AGAAGGTGTT, the switch fluorescence ratio was 1.07 ± 0.078.
AGAAGTCGCG showed a switch fluorescence ratio of 0.9551 ± 0.0013.
Sequence AGAAGTGTTT has a switch fluorescence ratio of 1.022 ± 0.0063.
With AGAATAAGAC the switch fluorescence ratio was 1.02 ± 0.085.
Sequence AGAATCAGGT has a switch fluorescence ratio of 0.9701 ± 0.0014.
AGAATCTTGC gave a switch fluorescence ratio of 1.167 ± 0.0026.
AGAATGAGGG gave a switch fluorescence ratio of 0.991 ± 0.041.
AGAATGCAGC showed a switch fluorescence ratio of 0.995 ± 0.041.
AGAATGGAAC gave a switch fluorescence ratio of 0.976 ± 0.056.
With AGAATGGAGG the switch fluorescence ratio was 0.994 ± 0.025.
AGAATGGGCA showed a switch fluorescence ratio of 0.989 ± 0.029.
With AGAATTGCGG the switch fluorescence ratio was 0.98 ± 0.044.
AGAATTGGGG showed a switch fluorescence ratio of 0.982 ± 0.027.
AGAATTGTAC showed a switch fluorescence ratio of 1.05 ± 0.014.
With AGAATTGTGG the switch fluorescence ratio was 0.9728 ± 0.0027.
With AGAATTTTCC the switch fluorescence ratio was 1.08 ± 0.076.
For AGACAAATGC, the switch fluorescence ratio was 1.19 ± 0.21.
Work on AGACAATTAG yielded a switch fluorescence ratio of 1.01 ± 0.093.
AGACACTTAA was tested, and the switch fluorescence ratio was 1.04 ± 0.023.
AGACAGGGG showed a switch fluorescence ratio of 1.04 ± 0.017.
Work on AGACCATCGT yielded a switch fluorescence ratio of 1.01 ± 0.032.
AGACCGTGTT showed a switch fluorescence ratio of 1.03 ± 0.054.
AGACCTAAAG gave a switch fluorescence ratio of 1.05 ± 0.069.
AGACGATGAG gave a switch fluorescence ratio of 0.933 ± 0.026.
For AGACGATTGG, the switch fluorescence ratio was 0.974 ± 0.076.
With AGACGGCAGC the switch fluorescence ratio was 0.992 ± 0.035.
With AGACGGGGGT the switch fluorescence ratio was 0.997 ± 0.028.
Sequence AGACGGTCAA has a switch fluorescence ratio of 1.08 ± 0.032.
With AGACGTCGGG the switch fluorescence ratio was 1.016 ± 0.0031.
Sequence AGACGTTTAA has a switch fluorescence ratio of 1.002 ± 0.0035.
In the case of AGACTAGGCT, the switch fluorescence ratio is reported as 1.02 ± 0.018.
AGACTATGAG was tested, and the switch fluorescence ratio was 1.03 ± 0.034.
AGACTGGTAC gave a switch fluorescence ratio of 1.156 ± 0.0022.
Sequence AGACTTCAGC has a switch fluorescence ratio of 1.04 ± 0.022.
AGAGAAGAT showed a switch fluorescence ratio of 0.988 ± 0.026.
Work on AGAGAATGG yielded a switch fluorescence ratio of 0.951 ± 0.023.
AGAGAGAGGT was tested, and the switch fluorescence ratio was 0.992 ± 0.045.
In the case of AGAGAGCCGT, the switch fluorescence ratio is reported as 1.06 ± 0.031.
Work on AGAGAGCTTT yielded a switch fluorescence ratio of 1.01 ± 0.021.
AGAGATTCGG showed a switch fluorescence ratio of 1.012 ± 0.01.
In the case of AGAGATTGTT, the switch fluorescence ratio is reported as 0.94745 ± 0.00025.
AGAGCAATTG gave a switch fluorescence ratio of 1.19 ± 0.014.
